Laboratory results taken from PMC11187062.
“And” between values parts separate entries of the source, which are not always exact repeats. Equal values may be shown once. Read-outs that look alike come from different tables or passages of the source. Each block holds one substance with its values, some of them ahead of it.

Assays:
[1] = target: UHRF1 PHD finger PHD (Mus musculus) (UniProt Q8VDF2); settings: cited from earlier work
[2] = target: UHRF1 PHD finger PHD (Homo sapiens) (UniProt Q96T88); settings: cited from earlier work
Sequence of UHRF1 PHD finger PHD (Homo sapiens) (Q96T88 307-369): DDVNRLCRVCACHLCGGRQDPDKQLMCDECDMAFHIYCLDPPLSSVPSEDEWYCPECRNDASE

[3] = target: UHRF1 PHD finger PHD (Mus musculus) (UniProt Q8VDF2); settings: cited from earlier work; remark: listed apart in the source
[4] = target: UHRF1 PHD finger PHD (Homo sapiens) (UniProt Q96T88); settings: cited from earlier work; remark: listed apart in the source
[5] = target: human UHRF1 PHD finger, residues 299-366, D334A/D337A (human) (UniProt Q96T88); assay: ITC; Microcal PEAQ-ITC, 293 K, 10 mM HEPES pH 7.5, 150 mM NaCl, 0.25 mM TCEP, one-site model; which partner was titrated is not stated; single titrations and their means
Sequence of human UHRF1 PHD finger, residues 299-366, D334A/D337A (human) (Q96T88 299-366 D334A/D337A): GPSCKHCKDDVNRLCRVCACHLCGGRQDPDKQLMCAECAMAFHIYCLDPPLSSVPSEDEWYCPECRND

hPHD D334A/D337A (human) = hPHD D334A/D337A (human) (UniProt Q96T88); assay: ITC; Microcal PEAQ-ITC, 293 K, 10 mM HEPES pH 7.5, 150 mM NaCl, 0.25 mM TCEP; one-site model; at least three independent titrations
Sequence of hPHD D334A/D337A (human) (Q96T88 299-366 D334A/D337A): as above

Sequence of UHRF1 PHD finger PHD (Mus musculus) (Q8VDF2 301-374): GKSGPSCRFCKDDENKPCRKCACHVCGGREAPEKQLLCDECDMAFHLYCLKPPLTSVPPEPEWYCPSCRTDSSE
Sequence of PAF15 1-10 (Q15004 whole entry, looked up, tested part not stated): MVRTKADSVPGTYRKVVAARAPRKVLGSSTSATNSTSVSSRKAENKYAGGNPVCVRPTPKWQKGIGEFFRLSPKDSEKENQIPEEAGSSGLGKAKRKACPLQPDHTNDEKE
Sequence of PAF15 (Q15004 whole entry): as the sequence (Q15004 whole entry, looked up, tested part not stated) above
Sequence of DPPA3 (Q8QZY3 whole entry): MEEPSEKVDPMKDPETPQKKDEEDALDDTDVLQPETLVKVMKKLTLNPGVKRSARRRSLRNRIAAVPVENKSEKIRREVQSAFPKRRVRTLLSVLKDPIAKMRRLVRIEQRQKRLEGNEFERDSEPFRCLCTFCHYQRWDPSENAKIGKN

Substance: DPPA3 (from UniProt Q8QZY3)
Kd [1]: 27.7 nM

Substance: PAF15 1-10 (from UniProt Q15004)
Kd [2]: 2200 nM

Substance: PAF15 (from UniProt Q15004)
Kd [3]: 3.52 µM

Substance: histone H3 1-15 (from UniProt P68431)
Kd [4]: 1700 nM

Kd [5]: 114 µM and 91 µM and 139 µM
Substance: human DPPA3, residues 81-118 (domain or fragment)

Kd (hPHD D334A/D337A (human)): > 115 µM
Substance: human DPPA3, residues 81–118 (recombinant) (domain or fragment)
